Assay results published in the Human Domainome abundance scans (Beltran et al. 2025).

B1: Mineralocorticoid receptor, residues 600 to 675; numbered along this chain, P08235 (parent)
chain: SKICLVCGDEASGCHYGVVTCGSCKVFFKRAVEGQHNYLCAGRNDCIIDKIRRKNCPACRLQKCLQAGMNLGARKS

Variants of: B1
Assay: abundance fitness (aPCA) (normalised: wild type 0, dead -1); higher = more abundant; growth selection in yeast, the domain comes from the species named
Conditions: Homo sapiens

Abundance fitness of substitutions, site by site:
G8: D -0.085, N -0.235, I -0.605, L -0.08, Y -0.248, E -0.075, H -0.273, V -0.621, T -0.079, W -0.27, M -0.062, S -0.057, K -0.019, A 0.058, R -0.043, C -0.233, F -0.202, Q -0.095
E10: L -0.028, T -0.032, H 0.078, P -0.108, N -0.04, V -0.04, I -0.188, G 0.043, K 0.016, M -0.177, R -0.1, D -0.018, W -0.012, C -0.221, A -0.063, S -0.03, Q 0.071, Y -0.105
V6: C -0.228, Y -0.489, P -0.704, K -0.83, L -0.375, G -0.726, I 0.008, M -0.416, N -0.706, Q -0.803, R -0.971, D -0.765, T -0.148, S -0.512, A -0.051
L5: P -0.075, Y -0.076, R -0.091, W -0.106, Q 0.05, V -0.209, M -0.133, N -0.068, T -0.037, S -0.075
G13: C -0.407, I -0.146, Q 0.032, V -0.092, H -0.016, S -0.033, R 0.028, P -0.157, F -0.047, M -0.035, L -0.073, Y -0.259, K 0.019, N 0.043, W -0.268, A -0.111, T 0.016
D9: T -0.082, E -0.096, L -0.309, G -0.053, S -0.102, A 0.048, V -0.001, H -0.04, C -0.137, R -0.183, Y -0.161, I -0.168, W -0.214, N -0.144, K -0.231, F -0.202, Q -0.092
C7: S -0.96, R -0.886, Y -0.805, H -0.802, T -0.999, V -0.998, A -0.933, W -0.765, L -1.15
C14: V -0.008, E -0.012, F -0.146, M 0.015, Q 0.013, R -0.062, T -0.09, W -0.049, G -0.077, P -0.072, Y -0.069, D -0.011, L -0.103, N -0.047, H -0.003, A -0.027
S12: G -0.181, V -0.106, K -0.124, W -0.191, H -0.117, P -0.008, F -0.173, Q -0.019, C -0.142, A -0.132, L 0.068, D -0.238, M 0.071, I 0.043, N 0.205, Y 0.096, R 0.004, E 0.103
H15: L -0.096, K 0.032, A -0.062, I -0.131, F 0.023, D -0.119, M -0.059, N -0.092, C -0.152, E -0.033
A11: K -0.101, S -0.044, W -0.22, T -0.063, L -0.16, Q -0.037, P -0.001, E -0.02, R -0.089, M -0.135, F -0.194, D -0.134, I -0.354, V -0.222, G -0.043, N 0.031, H -0.13, C -0.123, Y -0.245
